We go through six substances from patent US20240132578A1.

Bounds are passed on as bounds.

Holding throughout (assay): cell-based or functional assay
Test [1] concerns the target HIV-1 Env of isolate MGRM-D-020 (pseudovirus) (HIV-1).
Test [2] deals with HIV-1 Env of isolate MGRM-Chronic-B-008 (HIV-1).
In test [3] the target is HIV-1 Env of isolate MGRM-AG-013 (subtype AG) (HIV-1).
Test [4] deals with HIV-1 Env of isolate MGRM-D-014 (pseudovirus) (HIV-1).
For test [5], the target named is HIV-1 Env of isolate MGRM-F1-004 (HIV-1).
The target of test [6] is HIV-1 Env of isolate MGRM-A-013 (subtype A) (HIV-1).
The target of test [7] is HIV-1 Env of isolate MGRM-A-007 (subtype A) (HIV-1).
In test [8] the target is HIV-1 Env of isolate MGRM-D-013 (pseudovirus) (HIV-1).
In test [9] the target is HIV-1 Env of isolate MGRM-Chronic-B-002 (HIV-1).
Test [10] deals with HIV-1 JR-CSF Env T394A (HIV-1 (isolate JR-CSF)) (UniProt P20871).
Test [11] concerns the target HIV-1 Env of isolate MGRM-AE-008 (subtype AE) (HIV-1).
Test [12] deals with HIV-1 MGRM-D-001 envelope protein (Env) on pseudovirus (HIV-1).
For test [13], the target named is HIV-1 envelope glycoprotein (Env) of isolate 92UG037, subtype A (HIV-1).
The target of test [14] is HIV-1 Env of isolate MGRM-F1-023 (pseudovirus) (HIV-1).
The target of test [15] is HIV-1 envelope glycoprotein (Env) of isolate 93TH305, on pseudovirus (HIV-1).
Test [16] concerns the target HIV-1 Env of isolate MGRM-F1-021 (pseudovirus) (HIV-1).
Test [17] concerns the target HIV-1 94UG103 Env (HIV-1).
Test [18] deals with HIV-1 Env of isolate MGRM-AE-008 (pseudovirus) (HIV-1).
The target of test [19] is HIV-1 Env of isolate MGRM-AG-006 (pseudovirus) (HIV-1).
For test [20], the target named is HIV-1 92TH021 Env (HIV-1).
Test [21] addresses HIV-1 envelope glycoprotein (Env) of isolate MG RM-A-004, subtype A (HIV-1).
For test [22], the target named is HIV-1 MGRM-C-027 Env (HIV-1).
For test [23], the target named is HIV-1 MGRM-A-010 Env (HIV-1).

5114_A19 (PGT-128) (antibody): the IC50 (µg/mL), pseudovirus neutralization in test [1] is 0.011 µg/mL; in [2], 0.143 µg/mL; in test [4], 0.013 µg/mL; in [5] it was 0.027 µg/mL; in [8], 8.85 µg/mL; in [9] it was 0.036 µg/mL. For the same substance, the IC50, pseudovirus neutralization in test [3] was 0.004 µg/mL; in test [6] it was 0.008 µg/mL; in [7], above 50 µg/mL; in test [11] it was above 50 µg/mL. Also, the Fold IC50 increase relative to wild-type (pseudovirus neutralization) in test [10] stood at 3 fold.
In the case of 5136_H01 (PGT-131) (antibody), the IC50 (µg/mL), pseudovirus neutralization in test [1] was above 50 µg/mL; in test [2], above 50 µg/mL; in test [4] it was 0.516 µg/mL; in [5], 0.114 µg/mL; in test [8] it was 4.14 µg/mL; in test [9], above 50 µg/mL. Besides, the IC50, pseudovirus neutralization in [3] is 0.03 µg/mL; in test [6] it was above 50 µg/mL; in test [7], above 50 µg/mL; in test [11], above 50 µg/mL. Moreover, the Fold IC50 increase relative to wild-type (pseudovirus neutralization) in test [10] amounted to 0.9 fold.
Consider 5345_I01 (PGT-137) (antibody), for which the IC50 (µg/mL), pseudovirus neutralization is above 50 µg/mL in [1]; above 50 µg/mL in test [2]; above 50 µg/mL in test [4]; 40.3 µg/mL in test [5]; above 50 µg/mL in test [8]; above 50 µg/mL in [9]. The IC50, pseudovirus neutralization is above 50 µg/mL in test [3], 49.2 µg/mL in test [6], above 50 µg/mL in test [7] and above 50 µg/mL in [11].
For the substance 5329_C19 (PGT-136) (antibody), the IC50 (µg/mL), pseudovirus neutralization in test [1], in [2], in test [4], in [5], in test [8] and in [9] was above 50 µg/mL each time. Besides, the IC50, pseudovirus neutralization in [3], in [6], in [7] and in [11] was above 50 µg/mL in each case. Moreover, the IC50 (ug/mL), pseudovirus neutralization in [12] was above 10 µg/mL.
For 5343_B08 (PGT-135) (antibody), the IC50 (µg/mL), pseudovirus neutralization was above 50 µg/mL in test [1]; above 50 µg/mL in [2]; 2.21 µg/mL in test [4]; 0.211 µg/mL in test [5]; above 50 µg/mL in [8]; above 50 µg/mL in [9]. Further, the IC50, pseudovirus neutralization in test [3], in test [6], in test [7] and in test [11] was above 50 µg/mL throughout. In [10], this substance had a Fold IC50 increase relative to wild-type (pseudovirus neutralization) above 75 fold. In [12], this substance displayed an IC50 (ug/mL), pseudovirus neutralization above 10 µg/mL.
Consider 5123_A06 (PGT-125) (antibody), for which the IC50, pseudovirus neutralization in test [13] was 0.005 µg/mL; in test [15], 0.008 µg/mL; in [17], 0.0124 µg/mL; in test [20] it was 0.0066 µg/mL; in [21] it was above 50 µg/mL; in test [22] it was above 10 µg/mL. In test [23], the IC50, pseudovirus neutralization is 0.0025 µg/mL. The IC50 (µg/mL), pseudovirus neutralization was 0.12 µg/mL in [14], above 50 µg/mL in test [16], above 50 µg/mL in [18] and 0.008 µg/mL in test [19]. In test [10], this substance yielded a Fold IC50 increase relative to wild-type (pseudovirus neutralization) of 0.6 fold. The substance also gave an IC50 (ug/mL), pseudovirus neutralization in test [12] of 2.31 µg/mL.
